The test system of data set [1] is HeLa Kyoto. Description: solubility change mitosis vs G1/S (difference of NP-40 vs SDS log2 ratios) (log2 ratio difference); higher = more soluble in mitosis.
Data set [2] deals with HeLa Kyoto. Description: thermal stability score vs G1/S (z-score of summed log2 fold changes over temperatures); higher = more thermally stable than in G1/S.
Data set [3] relates to HeLa Kyoto. Description: solubility in G1/S (NP-40 vs SDS abundance) (log2 ratio); higher = more soluble. The conditions noted are these: cell cycle stage: G1/S.
Data set [4] has as its system HeLa Kyoto. The data set is described as follows: melting temperature (median over replicates), in situ; higher = more thermally stable.
Where [5] appears, read: cell cycle stage: early G1 (4.5 h after nocodazole release).
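Throughout, for melting temperature (median over replicates), in situ: HeLa Kyoto cells synchronized by double thymidine or nocodazole block, proteins quantified by TMT10plex mass spectrometry, three independent biological replicates.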
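Throughout, for solubility change mitosis vs G1/S (difference of NP-40 vs SDS log2 ratios): synchronized HeLa Kyoto cells (double thymidine block for G1/S, nocodazole release for mitosis), protein amounts in NP-40 versus SDS lysates quantified by mass spectrometry, three biological replicates.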
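Throughout, for solubility in G1/S (NP-40 vs SDS abundance): HeLa Kyoto cells arrested at G1/S by double thymidine block, proteins quantified by TMT10plex mass spectrometry in mild NP-40 versus SDS extracts, three biological replicates.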
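Throughout, for thermal stability score vs G1/S (z-score of summed log2 fold changes over temperatures): synchronized HeLa Kyoto cells, proteins quantified by TMT10plex mass spectrometry, three biological replicates, mitosis taken 0.5 h after nocodazole release, G1/S directly after double thymidine block.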

Regarding “MADIIARLREDGIQKRVIQEGRGELPDFQDGTKATFHYRTLHSDDEGTVLDDSRARGKPMELIIGKKFKLPVWETIVCTMREGEIAQFLCDIKHVVLYPLVAKSLRNIAVGKDPLEGQRHCCGVAQMREHSSLGHADLDALQQNPQPLIFHMEMLKVESPGTYQQDPWAMTDEEKAKAVPLIHQEGNRLYREGHVKEAAAKYYDAIACLKNLQMKEQPGSPEWIQLDQQITPLLLNYCQCKLVVEEYYEVLDHCSSILNKYDDNVKAYFKRGKAHAAVWNAQEAQADFAKVLELDPALAPVVSRELRALEARIRQKDEEDKARFRGIFSH [AIP]”, the “solubility change mitosis (log2)” value with HeLa Kyoto [1] is -0.0524. Moreover, the thermal stability score in the data set with HeLa Kyoto [2] (setting [5]) turned out to be 1.14; in the data set on HeLa Kyoto [2] (cell cycle stage: mitosis), 1.52. The “solubility in G1/S (log2)” value in the data set on HeLa Kyoto [3] was found to be 0.556. Further, the melting temperature in the data set with HeLa Kyoto [4] (cell cycle stage: G1/S) is 49.3 °C; in the data set with HeLa Kyoto [4] (cell cycle stage: mitosis), 50.3 °C.
In the case of “MADILSQSETLASQDLSGDFKKPALPVSPAARSKAPASSSSNPEEVQKEGPTALQDSNSGEPDIPPPQPDCGDFRSLQEEQSRPPTAVSSPGGPARAPPYQEPPWGGPATAPYSLETLKGGTILGTRSLKGTSYCLFGRLSGCDVCLEHPSVSRYHAVLQHRASGPDGECDSNGPGFYLYDLGSTHGTFLNKTRIPPRTYCRVHVGHVVRFGGSTRLFILQGPEEDREAESELTVTQLKELRKQQQILLEKKMLGEDSDEEEEMDTSERKINAGSQDDEMGCTWGMGEDAVEDDAEENPIVLEFQQEREAFYIKDPKKALQGFFDREGEELEYEFDEQGHSTWLCRVRLPVDDSTGKQLVAEAIHSGKKKEAMIQCSLEACRILDTLGLLRQEAVSRKRKAKNWEDEDFYDSDDDTFLDRTGLIEKKRLNRMKKAGKIDEKPETFESLVAKLNDAERELSEISERLKASSQVLSESPSQDSLDAFMSEMKSGSTLDGVSRKKLHLRTFELRKEQQRLKGLIKIVKPAEIPELKKTETQTTGAENKAKKLTLPLFGAMKGGSKFKLKTGTVGKLPPKRPELPPTLMRMKDEPEVEEEEEEEEEEEKEKEEHEKKKLEDGSLSRPQPEIEPEAAVQEMRPPTDLTHFKETQTHENMSQLSEEEQNKDYQDCSKTTSLCAGPSASKNEYEKSRGELKKKKTPGPGKLPPTLSSKYPEDDPDYCVWVPPEGQSGDGRTHLNDKYGY [SLC4A1AP]”, in the data set with HeLa Kyoto [1], the “solubility change mitosis (log2)” value was -0.0506. In addition, the values for the thermal stability score with HeLa Kyoto [2] (setting [5]) and in the data set on HeLa Kyoto [2] (cell cycle stage: mitosis) were -0.0668 and 1.11, respectively. The “solubility in G1/S (log2)” value in the data set on HeLa Kyoto [3] stood at 0.0907. In addition, the melting temperature in the data set with HeLa Kyoto [4] (cell cycle stage: G1/S) came to 50.1 °C; in the data set on HeLa Kyoto [4] (cell cycle stage: mitosis), 51.7 °C.
With “MADISLDELIRKRGAAAKGRLNARPGVGGVRSRVGIQQGLLSQSTRTATFQQRFDARQKIGLSDARLKLGVKDAREKLLQKDARFRIKGKVQDAREMLNSRKQQTTVPQKPRQVADAREKISLKRSSPAAFINPPIGTVTPALKLTKTIQVPQQKAMAPLHPHPAGMRINVVNNHQAKQNLYDLDEDDDGIASVPTKQMKFAASGGFLHHMAGLSSSKLSMSKALPLTKVVQNDAYTAPALPSSIRTKALTNMSRTLVNKEEPPKELPAAEPVLSPLEGTKMTVNNLHPRVTEEDIVELFCVCGALKRARLVHPGVAEVVFVKKDDAITAYKKYNNRCLDGQPMKCNLHMNGNVITSDQPILLRLSDSPSMKKESELPRRVNSASSSNPPAEVDPDTILKALFKSSGASVTTQPTEFKIKL [POLDIP3]”, the “solubility change mitosis (log2)” value with HeLa Kyoto [1] stood at 0.732. For the same sequence, the figures for the thermal stability score with HeLa Kyoto [2] (setting [5]) and with HeLa Kyoto [2] (cell cycle stage: mitosis) were -0.794 and -0.0102, respectively. For the same sequence, the “solubility in G1/S (log2)” value in the data set with HeLa Kyoto [3] was -0.386. In addition, the values for the melting temperature in the data set with HeLa Kyoto [4] (cell cycle stage: G1/S) and with HeLa Kyoto [4] (cell cycle stage: mitosis) were 49.3 °C and 49.9 °C, respectively.
As to “MADLANEEKPAIAPPVFVFQKDKGQKSPAEQKNLSDSGEEPRGEAEAPHHGTGHPESAGEHALEPPAPAGASASTPPPPAPEAQLPPFPRELAGRSAGGSSPEGGEDSDREDGNYCPPVKRERTSSLTQFPPSQSEERSSGFRLKPPTLIHGQAPSAGLPSQKPKEQQRSVLRPAVLQAPQPKALSQTVPSSGTNGVSLPADCTGAVPAASPDTAAWRSPSEAADEVCALEEKEPQKNESSNASEEEACEKKDPATQQAFVFGQNLRDRVKLINESVDEADMENAGHPSADTPTATNYFLQYISSSLENSTNSADASSNKFVFGQNMSERVLSPPKLNEVSSDANRENAAAESGSESSSQEATPEKESLAESAAAYTKATARKCLLEKVEVITGEEAESNVLQMQCKLFVFDKTSQSWVERGRGLLRLNDMASTDDGTLQSRLVMRTQGSLRLILNTKLWAQMQIDKASEKSIRITAMDTEDQGVKVFLISASSKDTGQLYAALHHRILALRSRVEQEQEAKMPAPEPGAAPSNEEDDSDDDDVLAPSGATAAGAGDEGDGQTTGST [RANBP3]”, the “solubility change mitosis (log2)” value in the data set on HeLa Kyoto [1] was -0.0529. The figures for the thermal stability score in the data set on HeLa Kyoto [2] (setting [5]) and in the data set on HeLa Kyoto [2] (cell cycle stage: mitosis) were 2.19 and 1.81, respectively. Further, the “solubility in G1/S (log2)” value in the data set on HeLa Kyoto [3] came out at 0.168. Moreover, the melting temperature with HeLa Kyoto [4] (cell cycle stage: G1/S) was determined as 55.3 °C; in the data set on HeLa Kyoto [4] (cell cycle stage: mitosis), 56.9 °C.
On to “MADLLGSILSSMEKPPSLGDQETRRKAREQAARLKKLQEQEKQQKVEFRKRMEKEVSDFIQDSGQIKKKFQPMNKIERSILHDVVEVAGLTSFSFGEDDDCRYVMIFKKEFAPSDEELDSYRRGEEWDPQKAEEKRKLKELAQRQEEEAAQQGPVVVSPASDYKDKYSHLIGKGAAKDAAHMLQANKTYGCVPVANKRDTRSIEEAMNEIRAKKRLRQSGEELPPTS [SPAG7]”, for which the “solubility change mitosis (log2)” value in the data set with HeLa Kyoto [1] was -0.0144. For the same sequence, the results for the thermal stability score with HeLa Kyoto [2] (setting [5]) and in the data set on HeLa Kyoto [2] (cell cycle stage: mitosis) were -1.04 and -1.5, respectively. For the same sequence, the “solubility in G1/S (log2)” value in the data set with HeLa Kyoto [3] was found to be 0.68. Also, the values for the melting temperature with HeLa Kyoto [4] (cell cycle stage: G1/S) and in the data set with HeLa Kyoto [4] (cell cycle stage: mitosis) were 53.1 °C and 55 °C, respectively.

These data come from the supplement of paper PMC5998384.
